Source: patent US20110206660A1 (Ablynx, published 2011)

What was measured:
[1] = target: T1, human CXCR4 (human, UniProt P61073-2 2-356); assay: competition binding vs [125I]-CXCL12, HEK293T-CXCR4 membranes
[2] = target: T1, human CXCR4; assay: competition binding vs [125I]-238D4, HEK293T-CXCR4 membranes
[3] = target: T1, human CXCR4; assay: competition binding vs [125I]-238D2, HEK293T-CXCR4 membranes
[4] = target: T1, human CXCR4; assay: competition binding vs [125I]-238D2, HEK293T-CXCR4 membranes; purified Nanobody up to 0.5 µM, tracer [125I]-238D2
[5] = target: T1, human CXCR4; assay: competition binding vs [125I]-CXCL12, HEK293T-CXCR4 membranes; purified Nanobody up to 0.5 µM, tracer [125I]-CXCL12
[6] = target: T1, human CXCR4; assay: competition binding vs [125I]-238D4, HEK293T-CXCR4 membranes; purified Nanobody up to 0.5 µM, tracer [125I]-238D4
[7] = target: T1, human CXCR4; assay: periplasm fraction (1:10), inhibition of [125I]-CXCL12 binding, HEK293T-CXCR4 membranes; - = 0-29%, + = 30-69%, ++ = 70-100%; periplasma fraction in the clone screen, tracer [125I]-CXCL12; 30-69% inhibition
[8] = target: T1, human CXCR4; assay: cell-based or functional assay
[9] = target: T1, human CXCR4; assay: competition with [125I]-CXCL12, membranes of HEK293T cells expressing CXCR4
[10] = target: T2, CXCR3 (UniProt P49682 1-368); assay: total binding of [125I]-238D4 to membranes of HEK293T cells expressing CXCR4 or CXCR3, without (-) and with 3 µM AMD3100
T2 construct: whole, on cells; also called chemokine receptor CXCR3
T2 sequence (looked up): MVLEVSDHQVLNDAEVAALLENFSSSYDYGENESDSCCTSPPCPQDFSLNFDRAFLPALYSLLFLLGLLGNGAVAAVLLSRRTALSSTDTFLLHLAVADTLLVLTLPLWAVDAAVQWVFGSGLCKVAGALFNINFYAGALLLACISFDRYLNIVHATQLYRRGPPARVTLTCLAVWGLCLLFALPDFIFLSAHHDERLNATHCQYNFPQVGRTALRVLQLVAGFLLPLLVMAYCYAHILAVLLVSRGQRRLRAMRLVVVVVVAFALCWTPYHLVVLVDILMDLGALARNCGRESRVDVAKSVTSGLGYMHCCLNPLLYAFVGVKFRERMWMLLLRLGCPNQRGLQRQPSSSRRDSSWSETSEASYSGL

[11] = target: T1, human CXCR4; assay: competition with [125I]-238D4, membranes of HEK293T cells expressing CXCR4
[12] = target: constitutively active CXCR4 mutant N119A (UniProt P61073 1-352); assay: cell-based or functional assay
Sequence of constitutively active CXCR4 mutant N119A (P61073 whole entry N119A): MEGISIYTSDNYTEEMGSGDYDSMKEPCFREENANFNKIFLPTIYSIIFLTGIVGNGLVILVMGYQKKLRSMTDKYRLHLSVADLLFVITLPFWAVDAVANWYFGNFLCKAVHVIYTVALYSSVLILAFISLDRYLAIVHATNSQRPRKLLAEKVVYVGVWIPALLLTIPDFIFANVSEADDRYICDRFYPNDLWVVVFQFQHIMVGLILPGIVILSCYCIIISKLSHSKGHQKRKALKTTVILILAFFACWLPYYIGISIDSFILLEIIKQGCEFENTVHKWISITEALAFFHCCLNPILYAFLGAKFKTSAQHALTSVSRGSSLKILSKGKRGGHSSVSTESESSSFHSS

[13] = target: T1, human CXCR4; assay: cell-based or functional assay; remark: listed apart in the source
[14] = target: T1, human CXCR4; assay: competition with [125I]-238D2, membranes of HEK293T cells expressing CXCR4
[15] = target: T1, human CXCR4; assay: competition binding vs [125I]-CXCL12, HEK293T-CXCR4 membranes
[16] = target: T2, CXCR3; assay: total binding of [125I]-238D2 to membranes of HEK293T cells expressing CXCR4 or CXCR3, without (-) and with 3 µM AMD3100
[17] = target: T1, human CXCR4; assay: competition binding vs [125I]-CXCL12, HEK293T-CXCR4 membranes; remark: listed apart in the source

T1 sequence (P61073 other isoform, or with tags, fused parts or gaps): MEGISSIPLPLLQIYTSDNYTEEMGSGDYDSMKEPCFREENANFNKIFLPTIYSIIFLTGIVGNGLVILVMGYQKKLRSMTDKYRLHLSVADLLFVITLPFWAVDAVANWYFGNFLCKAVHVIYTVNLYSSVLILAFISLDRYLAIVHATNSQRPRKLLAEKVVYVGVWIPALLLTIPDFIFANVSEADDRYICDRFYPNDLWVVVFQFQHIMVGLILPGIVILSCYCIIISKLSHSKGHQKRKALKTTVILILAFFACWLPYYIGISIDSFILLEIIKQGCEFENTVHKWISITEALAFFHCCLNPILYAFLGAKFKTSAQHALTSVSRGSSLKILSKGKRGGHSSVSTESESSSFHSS

## monoclonal antibody 12G5
[1]
  maximal displacement: 54%
  pKi: 9.19
[2]
  maximal displacement: 90%
  pKi: 9.31
[3]
  maximal displacement: 89%
  pKi: 9.65

B1: Nanobody 237D2 (VHH)
VHH: EVQLVESGGGLVQPGGSLRLSCAASGFTFDDYAMSWVRQAPGKGLEWVSAISWNGGSTDYADSVKGRFTISRDNAKNTLYLQMNSLKSEDTAEYYCARDQGPFYSGTYYYTRQYGYRGQGTQVTVSS
notes: Monovalent VHH; also called 237B6, A5, D2, D3, E4, F4, G2, G4, xH5, 237F1, C5, G1
[4]
  pKi: < 6.3
[5]
  pKi: < 6.3
[6]
  pKi: < 6.3

B2: Nanobody 237A6 (VHH)
VHH: EVQLVESGGGLVQAGGSLRLSCAASGSIFSLNAMGWYRQAPGKQRELVAGITSSTSTYYADSVKGRFTISRDNTKNTVYLQMNSLKPEDTAVYYCNVDCPDYYSDYECPLEDRGQGTQVTVSS
notes: Monovalent VHH
[7]
  percent inhibition of specific [125I]-CXCL12 binding: 30 to 69%
[4]
  pKi: < 6.3
[5]
  pKi: < 6.3
[6]
  pKi: < 6.3

B3: Nanobody 238D4 (VHH)
VHH: EVQLMESGGGLVQAGGSLRLSCAASGRTFNNYAMGWFRRAPGKEREFVAAITRSGVRSGVSAIYGDSVKDRFTISRDNAKNTLYLQMNSLKPEDTAVYTCAASAIGSGALRRFEYDYSGQGTQVTVSS
notes: Monovalent llama VHH; also called 238G3; 238D4, G3
[8]
  migration of Jurkat cells towards 0.3 nM CXCL12 (ChemoTx): IC50 (read off the curve): ~8 nM
[2]
  pKi: 8.55
[9]
  IC50 (read off the curve): ~10 nM
[10]
  binding result: no binding (tested: 3 nM)
[11]
  IC50 (read off the curve): ~4 nM
[12]
  reduction of the constitutively increased basal inositol phosphate accumulation, HEK293T-CXCR4 (N119A): 49%
[13]
  CRE activation, HEK293T-CXCR4-CREbgal/0.01-100 nM CXCL12: pKi or pIC50 (pKB from the Schild plot by the text): 7.7
  Chemotaxis, Jurkat/0.3 nM CXCL12: pKi or pIC50: 8.31
  IP accumulation, HEK293T-CXCR4-Gαqi5/30 nM CXCL12: pKi or pIC50: 8.39
[14]
  IC50 (read off the curve): ~3 nM
[3]
  pKi: 8.8
[15]
  maximal displacement: 99%
  pKi: 8.22

B4: 238D2-20GS-238D4 (VHH)
chain: EVQLVESGGGLVQTGGSLRLSCAASGFTFSSYAMSWVRQAPGKGLEWVSGIKSSGDSTRYAGSVKGRFTISRDNAKNMLYLQMYSLKPEDTAVYYCAKSRVSRTGLYTYDNRGQGTQVTVSSGGGGSGGGGSGGGGSGGGGSEVQLMESGGGLVQAGGSLRLSCAASGRTFNNYAMGWFRRAPGKEREFVAAITRSGVRSGVSAIYGDSVKDRFTISRDNAKNTLYLQMNSLKPEDTAVYTCAASAIGSGALRRFEYDYSGQGTQVTVSS
[12]
  reduction of the constitutively increased basal inositol phosphate accumulation, HEK293T-CXCR4 (N119A): 65%

B5: Nanobody 238C5 (VHH)
VHH: EVQLMESGGGLVQAGGSLRLACAASGFTFEDYAIGWFRKAPGKEREGVSCISGSDGSTTYADSVKGRFTISTDNAKNTVYLEMNSLKPEDTAVYYCAQQYGVGGRVVCPGPYEYDVWGQGTQVTVSS
notes: Monovalent VHH; also called 238C5, G2, xH5, 238C3, D6, E6
[2]
  pKi: < 7
[3]
  pKi: < 7
[15]
  maximal displacement: 0%
  pKi: < 6.3

B6: Nanobody 238D2 (VHH)
VHH: EVQLVESGGGLVQTGGSLRLSCAASGFTFSSYAMSWVRQAPGKGLEWVSGIKSSGDSTRYAGSVKGRFTISRDNAKNMLYLQMYSLKPEDTAVYYCAKSRVSRTGLYTYDNRGQGTQVTVSS
notes: Monovalent llama VHH; Tested as phage, as periplasm fraction and purified; also called 238C1; 238C1, D2
[16]
  binding result: no binding (tested: 3 nM)

B7: Nanobody 237G7 (VHH)
VHH: EVQLVESGGGLVQPGGSLRLSCAASSFIGNYHAIVWLRQAPGKELEGVSCITSRDSITYYASFVKGRFTISRDDAKNTVYLQMNNLKPEDTAVYYCAVBTSMTCPTLIVRFNYRGQGTQVTVSS
notes: Monovalent VHH
[7]
  percent inhibition of specific [125I]-CXCL12 binding: 30 to 69%
[4]
  pKi: < 6.3
[5]
  pKi: < 6.3
[6]
  pKi: < 6.3

B8: Nanobody 237D1 (VHH)
VHH: EVQLVESGGGLAQPGGPLRLTCEASGVIYSVNDMGWYRQAPGKQRELVAVITSGGGTNYVDSVKGRFTISGDNRKKTVYLQMNSLKPEDTAVYYCSIYYSSGISTLRSWGQGTQVTVSS
notes: Monovalent VHH
[7]
  percent inhibition of specific [125I]-CXCL12 binding: 30 to 69%
[4]
  pKi: < 6.3
[5]
  pKi: < 6.3
[6]
  pKi: < 6.3

B9: 238D4-20GS-238D4 (VHH)
chain: EVQLMESGGGLVQAGGSLRLSCAASGRTFNNYAMGWFRRAPGKEREFVAAITRSGVRSGVSAIYGDSVKDRFTISRDNAKNTLYLQMNSLKPEDTAVYTCAASAIGSGALRRFEYDYSGQGTQVTVSSGGGGSGGGGSGGGGSGGGGSEVQLMESGGGLVQAGGSLRLSCAASGRTFNNYAMGWFRRAPGKEREFVAAITRSGVRSGVSAIYGDSVKDRFTISRDNAKNTLYLQMNSLKPEDTAVYTCAASAIGSGALRRFEYDYSGQGTQVTVSS
notes: Bivalent Nanobody, 20-residue GS linker; also called L13
[17]
  Rel. potency (relative to monovalent 238D4): 4.4 fold
  pKi: 8.85

B10: 238D2-15GS-238D4 (VHH)
chain: EVQLVESGGGLVQTGGSLRLSCAASGFTFSSYAMSWVRQAPGKGLEWVSGIKSSGDSTRYAGSVKGRFTISRDNAKNMLYLQMYSLKPEDTAVYYCAKSRVSRTGLYTYDNRGQGTQVTVSSGGGGSGGGGSGGGGSEVQLMESGGGLVQAGGSLRLSCAASGRTFNNYAMGWFRRAPGKEREFVAAITRSGVRSGVSAIYGDSVKDRFTISRDNAKNTLYLQMNSLKPEDTAVYTCAASAIGSGALRRFEYDYSGQGTQVTVSS
[12]
  reduction of the constitutively increased basal inositol phosphate accumulation, HEK293T-CXCR4 (N119A): 64%
